Assay results: the supplement of paper PMC9876800

Tested on: peptide library, one residue held at a place counted from the S/T acceptor
Experiment: relative phosphorylation of the sub-library (ratio to the mean residue at this position); higher = residue favoured
Conditions: human
In short: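 Human or orthologue kinase constructs, purified and recombinant, were incubated under kinase-specific conditions in 384-well plates with biotinylated degenerate peptide sub-libraries. Each sub-library fixed one residue at one position around a central Ser/Thr. Incubations lasted 90 min with peptides at 50 μM and 50 μM ATP spiked with γ-32P-ATP, after which spots on streptavidin membranes were phosphorimaged and quantified by densitometry. Relative sub-library phosphorylation is a ratio to the mean residue at that position.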

AKT1, construct: aa109-end, sequence (P31749 109-480, looked up): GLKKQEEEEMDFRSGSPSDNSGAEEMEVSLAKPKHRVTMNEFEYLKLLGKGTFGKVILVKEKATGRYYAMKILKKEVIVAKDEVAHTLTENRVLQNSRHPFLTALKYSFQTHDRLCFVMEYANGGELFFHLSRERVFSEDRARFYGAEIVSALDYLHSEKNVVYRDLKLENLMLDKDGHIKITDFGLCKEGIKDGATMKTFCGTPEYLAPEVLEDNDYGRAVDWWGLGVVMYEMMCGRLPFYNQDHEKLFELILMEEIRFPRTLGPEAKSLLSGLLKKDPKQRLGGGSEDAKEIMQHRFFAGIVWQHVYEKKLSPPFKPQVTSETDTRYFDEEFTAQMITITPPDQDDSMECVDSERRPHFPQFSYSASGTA
RIPK3, construct: aa1-313, sequence (Q9Y572 1-313, looked up): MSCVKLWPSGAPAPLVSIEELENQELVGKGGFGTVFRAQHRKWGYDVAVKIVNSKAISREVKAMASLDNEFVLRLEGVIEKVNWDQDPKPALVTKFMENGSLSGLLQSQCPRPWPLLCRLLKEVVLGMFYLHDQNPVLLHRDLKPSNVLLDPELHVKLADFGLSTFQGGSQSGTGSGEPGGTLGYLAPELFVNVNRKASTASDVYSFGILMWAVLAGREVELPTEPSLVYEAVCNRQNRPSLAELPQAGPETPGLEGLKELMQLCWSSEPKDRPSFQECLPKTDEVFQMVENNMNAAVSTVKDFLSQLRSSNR
STK24, construct: Full length, sequence (Q9Y6E0 whole entry, looked up): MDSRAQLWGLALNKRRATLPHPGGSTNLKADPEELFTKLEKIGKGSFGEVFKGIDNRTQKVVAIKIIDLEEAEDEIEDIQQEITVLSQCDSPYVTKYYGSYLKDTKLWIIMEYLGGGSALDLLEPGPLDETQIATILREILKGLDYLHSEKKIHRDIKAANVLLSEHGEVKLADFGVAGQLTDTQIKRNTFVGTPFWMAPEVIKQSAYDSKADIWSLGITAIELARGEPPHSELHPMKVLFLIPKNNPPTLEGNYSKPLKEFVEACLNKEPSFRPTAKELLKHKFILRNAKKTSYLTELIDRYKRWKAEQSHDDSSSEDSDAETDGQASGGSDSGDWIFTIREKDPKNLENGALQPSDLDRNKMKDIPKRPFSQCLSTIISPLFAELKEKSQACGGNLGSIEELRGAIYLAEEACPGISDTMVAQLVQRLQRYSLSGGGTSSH
ACVR2B, construct: aa161-end, sequence (Q13705 161-512, looked up): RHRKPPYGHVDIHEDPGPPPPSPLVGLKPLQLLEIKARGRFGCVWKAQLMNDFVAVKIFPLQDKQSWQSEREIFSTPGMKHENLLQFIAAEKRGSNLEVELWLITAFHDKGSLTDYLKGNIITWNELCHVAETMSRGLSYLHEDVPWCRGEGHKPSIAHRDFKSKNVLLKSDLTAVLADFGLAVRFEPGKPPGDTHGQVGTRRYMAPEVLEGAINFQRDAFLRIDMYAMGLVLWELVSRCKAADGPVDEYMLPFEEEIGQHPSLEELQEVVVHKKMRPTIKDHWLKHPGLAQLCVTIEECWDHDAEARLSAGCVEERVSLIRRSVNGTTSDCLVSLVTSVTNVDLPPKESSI

STK24, construct: Full length (from UniProt Q9Y6E0)
relative phosphorylation
Conditions | at +1 | at +2 | at +3 | at +4 | at -1 | at -2 | at -3 | at -4 | at -5
A fixed | 0.627 | 0.917 | 0.954 | 0.963 | 1.01 | 0.99 | 1.02 | 1.14 | 1.34
D fixed | 0.166 | 0.344 | 0.465 | 0.516 | 0.762 | 0.388 | 0.58 | 0.738 | 0.689
E fixed | 0.175 | 0.268 | 0.443 | 0.499 | 0.483 | 0.344 | 0.586 | 0.869 | 0.689
F fixed | 1.29 | 0.471 | 0.999 | 0.679 | 0.781 | 1.19 | 0.855 | 0.867 | 0.873
G fixed | 0.498 | 1.11 | 1.15 | 0.979 | 1.88 | 1.34 | 1.48 | 1.34 | 1.2
H fixed | 0.946 | 1.11 | 1.17 | 1.03 | 1.12 | 1.44 | 1.05 | 1.08 | 1.07
I fixed | 1.77 | 0.493 | 0.827 | 0.727 | 0.43 | 0.782 | 0.675 | 0.743 | 0.713
K fixed | 0.827 | 3.1 | 2.09 | 2.43 | 1.57 | 1.41 | 1.84 | 1.51 | 1.87
L fixed | 1.76 | 0.472 | 1.01 | 0.716 | 0.98 | 0.635 | 0.737 | 0.75 | 0.719
M fixed | 1.61 | 0.6 | 0.843 | 0.846 | 0.897 | 0.702 | 0.738 | 0.81 | 0.68
N fixed | 0.547 | 0.871 | 0.812 | 0.998 | 1.27 | 1.05 | 1.06 | 0.97 | 0.902
P fixed | 0.401 | 0.807 | 0.802 | 0.952 | 0.751 | 0.765 | 0.959 | 0.94 | 1.2
Q fixed | 0.673 | 0.789 | 0.822 | 0.936 | 0.945 | 0.91 | 0.935 | 1.01 | 0.926
R fixed | 0.919 | 3.78 | 1.79 | 2.24 | 1.79 | 1.44 | 1.71 | 1.5 | 1.5
V fixed | 1.47 | 0.615 | 0.828 | 0.693 | 0.546 | 0.83 | 0.71 | 0.772 | 0.851
W fixed | 2.07 | 0.626 | 1.04 | 1.04 | 0.809 | 1.15 | 1.05 | 1.01 | 0.906
Y fixed | 1.25 | 0.618 | 0.968 | 0.76 | 0.981 | 1.64 | 1.01 | 0.951 | 0.868
pThr fixed | 1.19 | 1.05 | 0.892 | 0.801 | 0.865 | 1.28 | 1.61 | 1.33 | 1.43
pTyr fixed | 0.488 | 0.389 | 0.748 | 0.55 | 1.1 | 0.833 | 1.15 | 0.836 | 1.16

AKT1, construct: aa109-end (from UniProt P31749)
relative phosphorylation
Conditions | at +1 | at +2 | at +3 | at +4 | at -1 | at -2 | at -3 | at -4 | at -5
A fixed | 0.492 | 0.908 | 0.834 | 0.83 | 0.739 | 0.942 | 0.543 | 0.894 | 0.938
D fixed | 0.294 | 0.547 | 0.499 | 0.752 | 0.726 | 0.143 | 0.165 | 0.567 | 0.639
E fixed | 0.292 | 0.394 | 0.537 | 0.53 | 0.387 | 0.132 | 0.164 | 0.703 | 0.639
F fixed | 2.31 | 0.76 | 1.03 | 0.662 | 0.832 | 0.504 | 0.271 | 0.734 | 0.929
G fixed | 0.657 | 1.07 | 1.21 | 1.01 | 1.32 | 0.592 | 0.453 | 1.03 | 1.01
H fixed | 0.791 | 1.56 | 1.3 | 1.13 | 1.18 | 0.839 | 0.837 | 1.02 | 1.11
I fixed | 1.7 | 1.02 | 0.838 | 0.646 | 0.337 | 0.414 | 0.245 | 0.66 | 0.74
K fixed | 0.854 | 1.3 | 1.56 | 1.95 | 1.78 | 2.18 | 2.33 | 1.85 | 1.61
L fixed | 1.22 | 1.13 | 0.826 | 0.786 | 0.978 | 1.02 | 0.295 | 0.75 | 0.789
M fixed | 1.69 | 0.787 | 0.839 | 0.773 | 1.13 | 0.498 | 0.282 | 0.9 | 0.859
N fixed | 0.924 | 1.08 | 1.06 | 1.1 | 1.44 | 0.444 | 0.332 | 0.804 | 0.795
P fixed | 0.36 | 0.733 | 0.833 | 1.57 | 1.04 | 0.303 | 0.507 | 0.91 | 1.03
Q fixed | 1.08 | 0.903 | 0.964 | 1.25 | 1.01 | 0.546 | 0.56 | 0.91 | 0.835
R fixed | 0.952 | 1.95 | 1.94 | 1.84 | 1.75 | 7.28 | 9.07 | 2.75 | 2.58
V fixed | 1.4 | 1.11 | 0.782 | 0.702 | 0.449 | 0.44 | 0.238 | 0.757 | 0.727
W fixed | 1.12 | 0.831 | 0.963 | 0.884 | 0.663 | 0.332 | 0.352 | 0.972 | 0.893
Y fixed | 0.853 | 0.913 | 0.979 | 0.593 | 1.24 | 0.392 | 0.355 | 0.785 | 0.877
pThr fixed | 0.455 | 0.493 | 0.573 | 0.668 | 0.301 | 0.348 | 0.322 | 0.767 | 0.724
pTyr fixed | 0.575 | 0.645 | 0.577 | 0.447 | 0.9 | 0.273 | 0.299 | 0.692 | 0.728

RIPK3, construct: aa1-313 (from UniProt Q9Y572)
relative phosphorylation
Conditions | at +1 | at +2 | at +3 | at +4 | at -1 | at -2 | at -3 | at -4 | at -5
A fixed | 0.854 | 0.673 | 0.422 | 1.03 | 0.762 | 0.87 | 1.02 | 1.03 | 1.16
D fixed | 0.247 | 0.425 | 0.266 | 0.816 | 0.678 | 0.699 | 0.711 | 0.73 | 0.818
E fixed | 0.459 | 0.727 | 0.224 | 0.625 | 0.421 | 0.515 | 0.692 | 0.766 | 0.668
F fixed | 2.07 | 0.902 | 3 | 1.07 | 0.662 | 0.66 | 0.785 | 1.1 | 1.04
G fixed | 0.895 | 0.746 | 0.646 | 1.21 | 0.466 | 1.03 | 1.65 | 1.17 | 1.13
H fixed | 0.695 | 1.3 | 0.615 | 0.944 | 1.28 | 1.29 | 1.19 | 1.05 | 1.22
I fixed | 1.6 | 1.43 | 1.67 | 0.998 | 1.08 | 0.747 | 0.832 | 0.949 | 1.04
K fixed | 1.02 | 1.36 | 0.424 | 1.24 | 2.04 | 0.953 | 1.37 | 1.36 | 1.43
L fixed | 0.935 | 1.61 | 2.54 | 0.991 | 1.27 | 1.2 | 0.922 | 0.873 | 0.912
M fixed | 1.62 | 1.05 | 1.58 | 0.989 | 1.1 | 0.922 | 0.977 | 1.13 | 0.958
N fixed | 0.493 | 0.977 | 0.474 | 0.915 | 1.21 | 1.15 | 0.946 | 1.03 | 0.848
P fixed | 0.148 | 0.548 | 0.253 | 1.22 | 0.783 | 1.73 | 0.992 | 0.862 | 0.894
Q fixed | 1.32 | 1.04 | 0.399 | 0.938 | 0.888 | 0.847 | 0.979 | 0.818 | 0.826
R fixed | 1.76 | 1.31 | 0.669 | 1.15 | 1.73 | 2.22 | 1.48 | 1.23 | 1.12
V fixed | 1.26 | 1.14 | 0.661 | 0.863 | 1.11 | 0.697 | 0.732 | 0.969 | 0.991
W fixed | 0.81 | 0.603 | 1.68 | 1.11 | 0.623 | 0.727 | 0.944 | 0.999 | 0.986
Y fixed | 0.822 | 1.16 | 1.48 | 0.898 | 0.893 | 0.736 | 0.778 | 0.937 | 0.966
pThr fixed | 0.844 | 1.28 | 0.557 | 1.02 | 1.1 | 1.32 | 1.22 | 1.27 | 1.06
pTyr fixed | 0.422 | 0.937 | 0.518 | 0.722 | 0.785 | 0.648 | 0.892 | 0.859 | 0.733

ACVR2B, construct: aa161-end (from UniProt Q13705)
relative phosphorylation
Conditions | at +1 | at +2 | at +3 | at +4 | at -1 | at -2 | at -3 | at -4 | at -5
A fixed | 0.595 | 1.11 | 0.975 | 1.11 | 0.803 | 0.672 | 0.922 | 0.979 | 0.962
D fixed | 2.06 | 1.33 | 0.992 | 1.24 | 1.46 | 3.9 | 1.99 | 1.75 | 1.81
E fixed | 3.92 | 1.1 | 1.26 | 1.18 | 1.31 | 5.09 | 2 | 1.49 | 1.53
F fixed | 0.786 | 0.848 | 0.958 | 0.819 | 1.01 | 0.514 | 0.898 | 1.06 | 1.03
G fixed | 0.531 | 1.27 | 1.09 | 0.987 | 0.57 | 0.472 | 0.941 | 1.07 | 0.878
H fixed | 0.823 | 0.877 | 0.867 | 0.955 | 1.01 | 0.664 | 0.928 | 1.04 | 0.88
I fixed | 0.875 | 0.985 | 1 | 0.924 | 0.746 | 0.396 | 0.77 | 0.78 | 0.752
K fixed | 0.372 | 0.75 | 0.617 | 0.767 | 0.554 | 0.403 | 0.722 | 0.644 | 0.734
L fixed | 0.752 | 0.69 | 1.17 | 0.901 | 1.38 | 0.532 | 0.725 | 0.88 | 0.8
M fixed | 0.917 | 0.868 | 1.03 | 0.887 | 1.37 | 0.458 | 0.802 | 0.853 | 0.878
N fixed | 0.742 | 0.933 | 0.887 | 0.905 | 0.948 | 0.876 | 0.987 | 0.971 | 1.01
P fixed | 0.316 | 1.41 | 1.18 | 1.22 | 0.595 | 0.335 | 0.784 | 0.913 | 0.905
Q fixed | 1.02 | 0.859 | 0.904 | 0.994 | 0.81 | 0.659 | 0.947 | 0.838 | 0.847
R fixed | 0.374 | 0.826 | 0.769 | 0.827 | 0.531 | 0.45 | 0.621 | 0.626 | 0.802
V fixed | 1.06 | 1.13 | 0.98 | 0.941 | 1.04 | 0.534 | 0.892 | 0.883 | 0.924
W fixed | 0.969 | 0.954 | 1.13 | 1.33 | 1.56 | 0.512 | 1.11 | 1.2 | 1.23
Y fixed | 0.886 | 1.07 | 1.19 | 0.998 | 1.31 | 0.527 | 0.963 | 1.03 | 1.03
pThr fixed | 4.33 | 1.49 | 1.08 | 1.29 | 1.86 | 1.18 | 1.78 | 1.34 | 1.29
pTyr fixed | 2.48 | 1.11 | 1.19 | 1.08 | 1.85 | 0.886 | 2.34 | 1.45 | 1.26
